Source: patent US20030147883A1

How the values were obtained:
[1] = target: Epitope tagged high affinity fMLP receptor FPR (on ETFR cells) (UniProt P21462); experiment: cell-based or functional assay
[2] = target: FPR-like receptor 1 (FPRL1) (UniProt P25090); experiment: cell-based or functional assay
Chain of FPR-like receptor 1 (FPRL1) (P25090 whole entry): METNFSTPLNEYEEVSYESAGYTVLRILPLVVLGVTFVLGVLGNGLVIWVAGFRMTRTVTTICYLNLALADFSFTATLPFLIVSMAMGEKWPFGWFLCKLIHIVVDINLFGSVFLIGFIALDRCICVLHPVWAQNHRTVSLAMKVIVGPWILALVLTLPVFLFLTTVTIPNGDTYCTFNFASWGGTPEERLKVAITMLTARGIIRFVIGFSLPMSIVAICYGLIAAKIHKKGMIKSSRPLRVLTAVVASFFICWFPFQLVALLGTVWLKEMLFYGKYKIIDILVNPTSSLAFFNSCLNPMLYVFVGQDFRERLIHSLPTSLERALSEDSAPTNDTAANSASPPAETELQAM

Chain of Epitope tagged high affinity fMLP receptor FPR (on ETFR cells) (P21462 whole entry): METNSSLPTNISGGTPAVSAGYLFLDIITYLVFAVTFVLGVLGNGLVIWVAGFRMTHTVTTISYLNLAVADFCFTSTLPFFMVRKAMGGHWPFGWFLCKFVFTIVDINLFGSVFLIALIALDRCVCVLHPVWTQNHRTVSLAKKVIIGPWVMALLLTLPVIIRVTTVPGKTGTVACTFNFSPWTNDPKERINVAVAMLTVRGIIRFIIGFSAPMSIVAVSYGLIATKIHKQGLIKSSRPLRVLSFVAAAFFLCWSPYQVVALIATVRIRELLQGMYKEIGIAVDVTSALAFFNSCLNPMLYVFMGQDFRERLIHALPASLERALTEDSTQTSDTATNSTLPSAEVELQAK

## N-formyl-methionyl-leucyl-phenylalanine (fMLP) (peptide)
[1]
  Ca^2+ mobilization in ETFR cells, minimal effective dose: 100 pM
[2]
  cross-desensitization of Ca^2+ flux in FPRL1/293 cells: 100000 fold excess
